The nature of the data set: yeast display, Sf9 membrane polyspecificity reagent, FACS + sequencing; frameworks hold sequencing errors. The method, boiled down: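 Using colony PCR, genes from sorted yeast display clones were amplified, then sequenced on MiSeq at 2 × 250 and filtered by CDR length. The clones had been stained with 10% biotinylated, detergent-solubilized Sf9 membrane reagent for 1 hour at 4 °C and sorted by FACS into low and high (top ~1%) gates on anti-HA and streptavidin fluorescence. Polyreactivity labels come from the gate of origin.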
Turning to “QVQLVESGGGLVQAGGSLRLSCAASGRTFVEYAMGWYRQAPGKERELVAAITYSGDDTYYADSVKGRFTISRDNAKNTVYLQMNSLKPEDTAVYYCAKKRSKPISFDYWGQGTQVTVSS”, the “polyreactivity (PSR sort gate)” value is on record as “high polyreactivity”.
Next, “QVQHVESGGGLVQAGGSLRLSCAASGFTIPNYAMGLYRQAPGKERELVAAITSGGGRTNYADSVKGRFTISRDNAKNTVDLQMNSLKPEDTAVYDCAKTRLRGSEFGFWGQGTQVTVSS”: “low polyreactivity”; “QVQLVESGGGLVQAGGSLRLSCAASGSTFTTYGMGWYRQAPGKERELVAGITFRGGSTYYADSVKGRFTISRDNAKNTVYLQMNSLKPEDTAVYYCAAERWRWYYSWTMDYWGQGTQVTVSS”: “high polyreactivity”.
Next, “QVQLVESGGGLVQAGGSLRLSCAASGRIFYSYVMGWYRQAPGKDRELVGAITRSGGTTYYADSVMGRFTISRDNANNPVYLQMNSLKPEDTAVYYCATRSIFNGYGYYHPYNFWGQGTQVTVSS”: “high polyreactivity”.
As for “QVQLVESGGCLVQAGGSLRLSCAASGSIFGYYAMGWYRQAPGKERELVAAISYSGGSTYYADSVKGRFTISRDTAKNTVYLQMNSLKPEDTAVYYCNAVTSWAYWRGPRYDYWGQGTQVTVSS”, the “polyreactivity (PSR sort gate)” value was “high polyreactivity”.
To “QVQLVESGGGLVQAGGSLRLICAASGRIFGDNAMGWYRQAPGKERELVAGIRWRADRTYYADSVKGRFTISRDNAKNTFYLQMNSLKPEDTAVYYCAARGGGYYDFDYWGQGTQVTVSS” belongs “low polyreactivity”; to “QVQLVESGGGLVQAGGSLRLSCAASGRTFASNAMGCYRQAPGKERELVAAITISGGRTYYADSVKGRFTISRDNAKNTVYLQMNSLKPEDTAVYYRAAAKHSWRPSYYWGGYWGQGTQVTVSS”, “low polyreactivity”; to “QVHLVESGGGLVQAGGSLRLSCAASGRPFSKYTMGWDRQAPGKERELVAVISRSGTRTYYADSVKGRFTISRDNAKNTVYLQMNSLKPEDTAVYYCAAKDERRSFGMGYWGQGTQVTVSS”, “high polyreactivity”.
To “QVQLVESGGGLVQAGGSLRLSCAASGFNFYCNAMGWYRQAPGKERELVATIRYRGGRTYYADSVKGRFTISRDNEKNTVYLQMNSLKPEDTAVYYCNTRSVYHRYDYDYWGQGTQVTVSS” belongs “high polyreactivity”; to “QVQLVESVGGLVQAGGSLRIICAASGITLAWYSMGWYRKAPGKERELVASISSSGSTNYADSVKGRFTISRDNAKNTVYLQMNSLIPEETAVYYCNKDYLLLHYYIYVIEGDYWGQGTQVTVSS”, “low polyreactivity”; to “QVQLVESGGGLVQAGGSLRLSCAASGSIFYSYAMGWYRQAPGKERELVAAISTTGGSTYYADSVKGRFTISRDNAKNTVYLQMNSLKPEDTAVYYCAREQGFRGDWYDYWGQGTQVTVSS”, “high polyreactivity”.
To “QVQLVESGGGLVQAGGSLRLICAASGRIYYGYAMGWYRQAPGKERELVSTITWSGGSTYYADSVKGRFTISRDNAKNTVYLQMNSLKPEDTAVYYCAAYSPYIYQAYRYDYWGQGTQVTVSS” belongs “low polyreactivity”; to “QVQLVESGGGLVQAGGSLRLTCAASGFIFGSYSMGWYRQAPGKERELVAAITSGGSTYYADSVKGRFTISRDNAKNTVYLQMNSLKPEDTAVYYCAKYHWRLSFSRYPYDYWGQGTQVTVSS”, “high polyreactivity”.
Turning to “QVQLVESGGGLVQAGGSLRLSCAASGRTFVNYAMGWYRQAPGKEREFVAAITNGGRTNYADSVKGRFTISRDNAKNTVYLQMNSLKPEDTAVYYCAARYRFGGIRRYNYWGQGTQVTVSS”, the “polyreactivity (PSR sort gate)” value is listed as “high polyreactivity”.
Next, “QVQLVESGGGLVQAGGSLRLSCAASGITFWEYAMGWYRQAPGKERELVAAISRSGGSTYYADSVKGRFTISRDTAKNTVYLQMNSLKPEDTAVYYCAAYTRRPIYDYWGQGTQVTVSS”: “high polyreactivity”; “QVQLVESGGGLVQAGGSLRLSCAASGFTFYLYTMGWYRQAPGKERELVATITSDGGTNYADSVKGRFTISRDNAKNTVYLQMNSLTPEDTAVYYCARDYLSPYAVDYWGQGTQVTVSS”: “low polyreactivity”; “QVQLVESGGGLVQAGGSLRLSCAASGFTFDFYVMGWYRQAPGKERELVAAISWDGGTTYYADSVKGRFTISRDNAKNTVYLQMNSLKPEDTAVYYCAADDWVYVPTGAWYLYEYWGQGTQVTVSS”: “high polyreactivity”.
In the case of “QVQLVESGGGLVQAGGSLRLSCAASGSIFGYYAMGWYRQAPGKERELVAAITWRGGTYYADSVKGRFTISRDNAKNTVYLQMNSLKPEDTAVYYCAAPRLATYQWYDYWGQGTQVTVSS”, the “polyreactivity (PSR sort gate)” value is given as “high polyreactivity”.
In the case of “QVQLVESGGGLVQAGGSLRLSCAASGSISWHYAMGWYRQAPGKERELVASISTDGGTTYYADSVKGRFTISRDNAKNTVYLQMNSLKPEDTAVYYCAAEWYWVYYVPYEYWGQGTQVTVSS”, the “polyreactivity (PSR sort gate)” value was “low polyreactivity”.
Next, “QVQLVESGGGLVQAGGSLRLSCAASGFTFQRYAMGWYRQAPGKERELVADISRSGGSTYYADSVKGRFTISRDNAKNTVYLQMNSLKPEDTAVYYCAAGYPGYDSYYKFYYWGQGTQVTVSS”: “high polyreactivity”; “QVQLVESGGGLVQAGGSLRLSCASSGYIIIIYAMGWYRQAPGKERELVAAINRRGGSTYYADSVKGRFTISRDNAKNTVYLQMNSLKREDTEVYYCNAYPYFSRGPHLYDYWGQGTQVTGSS”: “high polyreactivity”.
To “QVQLVESGGGLVQAGGSIRLSFPASGRTFAYNAMGRYRPAPGKERELVADITSGGSTYYADSVKGRFTISRENAKNTVYLQMNRLKREDTAVYYCAAYPQFWYWDYNYWGQGTQVTVSS” belongs “high polyreactivity”; to “QVQLVESGGGLVQAGGSLRLSCAASGRIFPRYAMGWYRQAPGKERELVATISSGGSTYYADSVKGRFTISRDNAKNTVYLQMNSLKPEDTAVYYCAARKRPYTVINGMDYCGQGTQVTVSS”, “low polyreactivity”.
Next, “QVHLVESGGGLVQAGGSLRLSCSASGRIFDNYVMGWYRQAPGKERELVAAISSGGGTYYADSVKGRFTISRDNAKNTVFLQMNSLKPEDTAVYYCAKRRVYDRSFGRYDYWGQGTQVTVSS”: “low polyreactivity”; “QVQLVESGGGLVQAGGSLRLSCAASGRIFYYYVMGWYRQAPGKERELVAAISSRGGCTYYADSVKGRFTISRDNAKNTVYLQMNSLKPEDTAVYYCAAEYGSISLRYPYYWRYDYWGQGTQVTVSS”: “high polyreactivity”; “QVQLVESGGGLVQAGGSLRLSCAASGLTFRVYAMGWYRQAPGKERELVAAITGGGRTYYADSVKGRFTISRDNAKNTVYLQMNSLKPEDTAVYYCAAAGYYVWGQGTQVTVSS”: “high polyreactivity”.
In the case of “QVQLVESGGGLVQAGGSLRLSCAASGRTFHHNTMGWYRQAPGKERELVAAISSGGSTNYADSVKGRFTISRDNAKNTVYLQMNSLKPEDTAVYYCNADGGFLQRTGYDYWGQGTQVTVSS”, the “polyreactivity (PSR sort gate)” value is recorded as “low polyreactivity”.
Next, “QVQLVESGGGLVQAGGSLRLSCAASGYTFFYYAMGWSRQAPGKERELVAIDLNGGSTYYADSVKGRFTISRDNAKNTVYLQMNSLKPEDTAVSSCAATRPWYGDVGYLEDYWGQGTQVTVSS”: “low polyreactivity”; “QVQLVESGGGLVQAGGSLRLSCAASGGIFLDYVMGWYRPATGKQRELVAAISGSGGTNYADSVKGRFTISRDNAKNTVYLQMNSLKPEDTAVYYCAAVGYYSYSYYTKVGVDYWGQGTQVTVSS”: “high polyreactivity”.
As to “QVQLVESGGGLVQAGGSLRLSCAASVSTFYRNAMGWYRQAPGKERELVADISASGGSTYYADSVKGRFTISRDNAKNTVYLQMNSLKPEDTAVYYCNALYFYFYNYLTIVYWGQGTQVSVSS”, the “polyreactivity (PSR sort gate)” value was “low polyreactivity”.
Next, “QVQLVESGGGLVQAGGSLRLSCAASGIIFTYYAMGWYRQAPGKERELVADIDWSGDGTYYADSVKGRFTISRDNAKNTVYLQMNSLKPEDTAVYYCAAEGTETYYVFYDQPEITLYDYWGQGTQVTVSS”: “low polyreactivity”; “QVQLVESGGGLVQAGGRLRISCAASGSIFEGNGMGWYRQAPGKQREFVAAITNRGGSTYYADSVKGRFTISRDNAKNTVYVQMISLKPEDTAVFYCAADWTTNPDYQQSYFVSYEYNYWGHGTQVTVSS”: “low polyreactivity”.
To “QVQLVESGGGLVQAGGSLRISSAASGSTNYPNAMGWYRQAPGKERELVAVIRWSGGSTYYADSVKGRFTISRDNAKNTVYLQMNSLKPEDTAVYYCNADFYRVAYLRRYSHFDYWGQGTQVTVSS” belongs “high polyreactivity”; to “QVQLVESGGGLVQAGGSLRLSCAASGFTFDIYAMGWYRQAPGKEWELVAAITSGGITNYADSVKGRFTISRDNAKNTVYLQMNSLKPEDTAVYYCAADEYLGFYVSHTDWTKYDYWGQGTQVTVSS”, “low polyreactivity”; to “QVQLVESGGGLVQAGGSLRLSCAASGFIFYRYAMGWYRQAPGKERELVAAISTLGGSTFYADSVKGRFTISRDNAKNTVYLQMISLKPEDTAVYYCATGPLRAYDYWGQGTQVTVSS”, “high polyreactivity”.
Next, “QVHLVESGGGIVQAGGSLRLSCAASGSIFGKNVMGWYRHAPGKERQLVAAITSGASTYYADSVKGRFTISRDNAKNTVYLQMNSLKPEDTPVYYCAARRWRKYYSGYNYWGQGTQVTVSS”: “high polyreactivity”.
In the case of “QDQLVESGGGLVQAGGRLRLSCAASGFTFHKYAMGWSRPAPGKDRELVAAITSSGGSTYYADSVKGRFTISRDYAKNTVYLQMTSLKPEDTAVYYCNARGGGRKSYDYWGQGTQVTVSS”, the “polyreactivity (PSR sort gate)” value is on record as “high polyreactivity”.
Next, “QVQLVESGGGLVQAGGSLRLSCAASGFISSHYAMGWYRQAPGKERELVAAISTNGGSTYYADSVKGRFTISRDNAKNTVYLQMNSLKPEDTAVYYCAAEFAVSFYWSWLGQDYNYWGQGTQVTVSS”: “high polyreactivity”; “QVQLLESGGGLVQAGGSLRLSCAASGSTFKKNAMGWYRQAPGKETELVAAISGIGTRTSYADSVKGRFTISRDNAKNTVYLQMNSLKPEDTAVYYCAARYYGFPSTLKYDYWGQGTQVTVSS”: “high polyreactivity”; “QVQLVESGGGLVQAGGSLRLSCAASGSIYGSYVMGWYRQAPGKERELVAAINWSGGRTYYADSVKGRFTISRDNAKYTVFLQMNSLKPEDTAVYYCAARATNVYSKMDYWGQGTQVSVSS”: “high polyreactivity”.

The values are drawn from the nanobody polyreactivity screen of Harvey et al. (2022).
